Assay results reported in doi:10.1101/2025.05.16.654433.

B1: APE-1::GFP::3xflag (endogenous APE-1 tagged with 3xflag and GFP) [C. elegans] / HaloTag::GSP-2 (endogenously HaloTagged GSP-2 labeled with JF646) [modified: far-red dye JF646 on the HaloTag; far-red dye JF646 on the HaloTag] … (parent)
chain 1: MVTTSSGGGIGYPANNGVTQVSLIHSSDSVRTVSTAPIYRPTSSMASTMAHKSSTAPFISANQRMSKPPVRVVAQPPPPHPQALSQQYHQQNPMMMYSAPNTRPHVIPTMQVQPTMAAQIKRNNPVNAQFQNPSEMIADYGVKPQSVEMVQRVRAVRRQVADEETELRRLRELEHETAQLQNKNYGRERELNVQGSMLKEAQLELRNASMRAQSLNKHLEEMYRRRQTAAAAALVEQRKMQQHQILLARAANQVSTQEVIRPRASVEPFQVNNTQQQQPSPQMMKSEEFSEKRDLNGQTGSYDAIDGSGDHQKIPTEPSYLAPCKENQQKYSELSKMASTDPHSNHSSPSTSSQKAPTLITFSPPSFEQKINSSTMTRDSPFVERPTSFGDSLDESRLRSGKTDLVSLRSDSLKATKRRSWAASEGTSMSEAEMIHRLLDEQRRGRSHFIPQLPTSQEEPSAITSETYAEEVVNSESKQVATSSDSTNNLELPTEQMVLGSDTTTEEDASSCSTRSDDGQNLEMEVAIERRTVKGILRRPNEKMNKGRIEFDPLALLLDAALEGELDLVRSSASKLTDVSQANDEGITALHNAICAGHYEIVRFLIENDADVNAQDSDGWTPLHCAASCNNLPMVRQLVEGGGCVLASTLSDMETPVEKCEEDEDGYDGCLKYLSAAHNSTGSINTGKVYAAYGYEAAFEDELSFDAGDELTVIEKDKVDKNWWTCEKNNGEKGQVPRTYLALYPSLKYRKKLNFVMFDLPLESNNNVE
chain 2: MDVEKLNLDNIISRLLEVRGSKPGKNVQLTESEIKGLCQKSREIFLSQPILLELEAPLKICGDVHGQYYDLLRLFEYGGFPPESNYLFLGDYVDRGKQSLETICLLLAYKIKYPENFFLLRGNHECASINRIYGFYDECKRRYNIKLWKTFTDCFNCLPVAAIIDEKIFCCHGGLSPDLQSMEQIRRIMRPTDVPDQGLLCDLLWSDPDKDVTGWGENDRGVSFTFGPEVVAKFLHKHDLDLICRAHQVVEDGYEFFAKRQLVTLFSAPNYCGEFDNAGSMMTVDETLMCSFQILKPADKKKYPYGAGGVGSNRPVTPPRNAPAAQPKKGAKK

Variants of: B1
Assay: single molecule photobleaching analysis (TIRF microscopy) on anti-flag functionalized coverslips
Details: with HaloTag::GSP-2 (endogenously HaloTagged GSP-2 labeled with JF646) [modified: far-red dye JF646 on the HaloTag, whole worm lysates, HaloTag::GSP-2 labeled with JF646, p = 0.008 vs APE-1, read off a plot

Variant	screen value
chain 1 N583K	34%

Same assay, conditions: with HaloTag::GSP-2 (endogenously HaloTagged GSP-2 labeled with JF646) [modified: far-red dye JF646 on the HaloTag, whole worm lysates, HaloTag::GSP-2 labeled with JF646, p=0.531 vs APE-1, read off a plot

Variant	screen value
chain 1 H591Y	38%
